Target: Mal3 (UniProt Q10113)
Assay: Mal3-GST pull-down from yeast lysate
Conditions: reference: wild-type Klp2-GFP; sites S113,S123

In the case of Klp2 (from UniProt Q9US03) Klp2-2A-GFP, the “binding against the reference” value is reported as “stronger”.
